Among the data in publication PMC8096270 are stoichiometry N and Kd values, retold here.

Series [1] deals with Full-length MMTV Gag polypeptide with a C-terminus hexa-histidine tag (Pr77^Gag-His6-tag protein) (mouse mammary tumor virus (MMTV)). In words: dynamic light scattering; Pr77^Gag in storage buffer (50 mM Tris-HCl pH 8.0, 1 M NaCl), 20°C; mean hydrodynamic radius based on number distribution.
The test system of series [2] is Pr77Gag (Gag precursor polyprotein) (Mouse mammary tumor virus (strain not stated; HYB-MTV?)). In words: EMSA. To be noted: competition, filter binding: 30 mM Tris pH 7.5, 300 mM NaCl, 5 mM MgCl2, DTT (10 mM in protein diluent), 0.01% Triton X-100, BSA, 37 C 30 min then ice ….

As to “Full-length MMTV Gag polypeptide with a C-terminus hexa-histidine tag (Pr77^Gag-His6-tag protein) (natural protein)”, in series [1], the stoichiometry N amounted to 3.
WT unspliced gRNA nt 1-712 (SA35) yielded a Kd in series [2] of 480 nM.
